How the values were obtained:
[1] = tested on: hT40, dGA, dGAE and truncated tau fragments; assay: Binding ELISA / epitope mapping of anti-tau scAbs with truncated tau proteins and 13mer peptides; design: species or system human; settings: for Tau proteins/fragments with positive scAb reactivity / Shortest region bound on hT40: Table 17, 'C' group scAbs; for Tau proteins/fragments with positive scAb reactivity: binding ELISA; for Shortest region bound on hT40: incl. 13mer peptides
Outline: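 Serially double-diluted scAbs were applied to 2% MPBS-blocked wells carrying either 1 μg/ml full-length or truncated tau, or biotinylated 13mer peptides (1 μg/ml) captured on 5 μg/ml streptavidin. Absorbance after HRP anti-human C kappa secondary gave the binding signal.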

dGAE aggregates = dGAE aggregates (Homo sapiens, UniProt P10636); assay: Epitope occlusion assay: dGAE aggregation with/without LMTM, 423 mAb capture ELISA; format: biochemical; settings: total and supernatant samples; 423 mAb capture
Description: During dGAE aggregation in vitro, scAb binding regions on dGA/dGAE are ‘hidden’ or ‘occluded’ which leads to a loss of immunoreactivity in aggregation samples. Here we have shown the occlusion of binding regions in aggregated dGAE samples and the recovery of immunoreactivity in the presence of LMTM, a tau-aggregation inhibitor. For preparing the aggregates, 10 μl 10 mM DTT was added to 1000 μl 100 μM dGAE and agitated with/without LMTM (1:5 ratio) at 700 rpm for 24 h at 37° C. Following overnight agitation, one third of each sample was kept aside as ‘total’ and the rest was spun down at 16000×g for 30 min and separated into ‘supernatant’ and ‘pellet’. The pellet was then resuspended in half the original volume for further experiments. […] Doubling dilutions of dGAE aggregate ‘total’, ‘supernatant’ and ‘pellet’ samples at 10 μg/ml starting concentration were added to designated wells in doubling dilutions in 1×PBS. dGAE monomer (non-aggregated) was included as assay control. All double dilutions were done in final volumes of 100 μl. This was left to incubate on lab bench for 1 h followed by the addition of test scAbs at 10 μg/ml. Anti-HuCk HRP labelled secondary antibody was added as described previously and ELISA data generated is represented using the graph below.

htau40 = biological target: T1, htau40 (Homo sapiens, UniProt P10636); assay: Biacore X100 SPR kinetics of anti-tau mAbs on immobilised htau40; format: binding; settings: for ka / kd: Table 27, mAb format, immobilised htau40
T1 construct: Full length tau (hT40)
Description: For anti-tau mAb SPR measurements, htau40 was conjugated to the surface of a CM5 sensor chip using amine coupling as explained previously. Briefly, 2 μg/mL htau40 in 10 mM Sodium acetate buffer (pH 4.0) was passed over the activated chip surface (EDC/NHS) in flow cell 2 for a period for 45 s followed by blocking with 1 M ethanolamine-HCl PH 8.5. Flow cell 1 was set up as reference control and blocked simultaneously. Final immobilisation level of htau40 (Rmax) was approximately 250 RU. Following a minimum of three start-up cycles, increasing concentrations (0.78 nM-25 nM) of the mAb in HBS-EP+ buffer was added at a rate of […] to the chip. The mAb was added for a 120 s association period and 600 s dissociation period followed by a regeneration cycle of 30 s injection of glycine buffer pH 1.5 in between each cycle. Binding responses were analysed in Biacore X100 evaluation software and data fitted to a 1:1 binding model to obtain kinetic and affinity characterisation.
For anti-tau mAb SPR measurements (Biacore X100™) and epitope mapping, the same methodologies described above (see Example 16) were followed. Kinetic rates and equilibrium binding constants of additional anti-tau mAbs and the regions recognised on hT40 are given in the Table 25 below

[2] = biological target: T2, hT40 (T441, SEQ ID NO: 1) (Homo sapiens, UniProt P10636); assay: Biacore X100 SPR kinetics of scAbs for hT40; format: binding; settings: Table 23; scAb captured, T441 (hT40) analyte; 1:1 model
T2 construct: Full length tau (hT40)
Outline: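 Captured scAb on anti-HuCk CM5 surface (flow cell 1 as reference) in HBS-EP+, capture set for theoretical RMax 100 RU; hT40 injected multi-cycle (0.15625–100 nM) or single-cycle (6.25–100 nM), 120 s association, 420 s dissociation, glycine pH 2.0 regeneration. Kinetics and affinity from 1:1 binding model fit.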

[3] = tested on: 13 aa tau peptides of hT40; assay: Alanine scanning mutagenesis (ASM) peptide ELISA; format: binding, human; settings: alanine substituted peptides; numbering SEQ ID NO: 1
Description: Briefly, 5 μg/ml streptavidin (Thermo Fisher) was adsorbed to Nunc 96-well MaxiSorp plates and following incubation at 37° C. for 1 h, the plates were washed as normal and blocked with 2% MPBS. N-terminally biotinylated peptides (Prolmmune Ltd) were added to the plates and incubated for 1 h at 37° C. Subsequently, test scAbs at starting concentrations of 100-500 nM was added and double diluted across the plate for each peptide and incubated for 1 h at 37° C. Rest of the ELISA was conducted as described above and the plates were read at absorbance 450 nm. Immunoreactivity of the scAb of interest was quantified as the % of scAb was bound for each peptide at a chosen concentration (FIG. 15-20).

hT40 = biological target: T3, hT40 (Homo sapiens, UniProt P10636); assay: Sandwich ELISA limits of detection (LoD) of antibody pairs; format: binding; settings: S1G2 mAb capture, HRP labelled S1D12 mAb detection, chemiluminescence
T3 construct: Full length tau (hT40)
Text: The diverse panel of high affinity anti-tau antibodies (scAb and mAb formats) were paired in various combinations and tested in a Sandwich (or Capture) ELISA format to calculate their limits of detection (LoD) and their ability to differentiate between different tau species. Biologically, tau exists in 6 different isoforms and is subjected to numerous post translational modifications, some of them playing a significant role in the progression of neurodegeneration.
For Sandwich ELISA using colourimetric detection, 96 well Maxisorp plates were coated with the capture antibody S1D12 mAb at 1 μg/ml for 1 h at RT followed by blocking with 2% MPBS as normal. Full length tau (hT40), at 1 μg/ml starting concentration was added to designated wells and double diluted across rest of the plates and left to incubate at R/T for 1 h. A series of detection scAbs with varying epitope recognition properties were added at 10 μg/ml to designated wells (FIG. 22). For colourimetric detection HRP conjugated anti-HuCk secondary antibody was used and the resulting immunoreaction was developed and absorbance at 450 nm measured as described previously. Cut-off point for a positive binding event was an absorbance value of 0.3 following background subtraction. In order to enhance the assay sensitivity, a chemiluminescent detection method was adopted where 50 μL SuperSignal ELISA Femto Substrate (Thermo Scientific) was added to each well following incubation with anti-HuCK HRP antibody and subsequent washing. The luminescence was read using Clariostar Plus microplate reader. A further modification to this protocol was done where various detection scAbs were directly conjugated with HRP and detected using chemiluminescent protocol as before. The lowest levels of detection achieved using different detection scAbs and a comparison of colourimetric and chemiluminescent methods of detection are shown in Table 28
Similarly, a sandwich ELISA format was set up using S1G2 mAb at 1 μg/ml as the capture antibody and HRP conjugated S1D12 mAb for detection. The assay was conducted using chemiluminescent protocol described above.

[4] = Table 26 summary, top scAbs, residues of hT40
[5] = residue numbers of SEQ ID NO: 1 (hT40), CDR Tables 1-11

Chain of dGAE aggregates (P10636 614-708): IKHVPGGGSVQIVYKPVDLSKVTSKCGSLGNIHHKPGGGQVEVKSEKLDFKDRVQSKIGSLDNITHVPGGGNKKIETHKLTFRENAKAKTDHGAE
T1 sequence (P10636 1-441 isoform P10636-8): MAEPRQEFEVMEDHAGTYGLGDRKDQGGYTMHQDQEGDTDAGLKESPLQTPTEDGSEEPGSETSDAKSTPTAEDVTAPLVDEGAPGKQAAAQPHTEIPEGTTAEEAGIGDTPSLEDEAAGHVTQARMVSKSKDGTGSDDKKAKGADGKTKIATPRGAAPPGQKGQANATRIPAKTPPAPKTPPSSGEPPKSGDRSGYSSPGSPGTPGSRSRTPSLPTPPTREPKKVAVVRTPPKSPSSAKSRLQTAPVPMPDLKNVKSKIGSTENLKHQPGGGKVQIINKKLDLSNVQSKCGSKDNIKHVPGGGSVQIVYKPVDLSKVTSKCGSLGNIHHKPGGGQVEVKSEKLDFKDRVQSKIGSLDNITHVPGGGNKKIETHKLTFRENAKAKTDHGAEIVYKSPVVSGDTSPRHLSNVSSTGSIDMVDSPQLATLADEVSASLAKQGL
T2 sequence (P10636 1-441 isoform P10636-8): as above
T3 sequence (P10636 1-441 isoform P10636-8): as above

Row | Molecule | Tau proteins/fragments with positive scAb reactivity [1] | Shortest region bound on hT40 [1] | Epitope [1, 4] | Epitope [1, 5] | immunoreactivity to dGAE aggregation samples prepared in the presence of LMTM (dGAE aggregates) | ka (htau40) | kd (htau40) | ka [2] | kd [2] | critical binding residues [3] | Detection scAb (Epitope) ([1]; Table 28 (LoD table), residues of hT40) | Binding regions on hT40 ([1]; Table 33, core binding scAbs tested in epitope occlusion assays) | Kd (htau40; as quoted in Example 32, read-out: affinity) | LOD for hT40 (hT40)
1 | CE3: anti-tau core clone, Table 10; SEQ ID NO: 367 (protein, CE3 amino acid sequence) scFv: QVRLQESGPSLVKPSQTLSVTCTVSGFSLISNAVGWVRQAPGKVPESLAGCSSDGKCYYNSALKSRLDITRDTSKNQISLSLSSVTTDDAAVYYCTRGYYPVYGYDYLGTIDYWGPGLLVTVSSEGKSSGASGESKVDDQAVLTQPSSVSGSLGQRVSITCSGSSSNVGRNDVAWFQQLPGSGLRTIIYGTTSRPSGIPDRFSGSKSGVTATLTIDSLQAEDEADYFCASGDSSAINDIFGSGTRLTVLG | hT40, 266-359 (R1-3) | 331-360 | 331-360 | 331-360 | increase in immunoreactivity | 103000 M⁻¹ s⁻¹ | 0.001718 s⁻¹ | 174500 M⁻¹ s⁻¹ | 0.000662 s⁻¹ | – | – | – | – | –
2 | CB3: anti-tau core clone, Table 10; SEQ ID NO: 370 (protein, CB3 amino acid sequence) scFv: QVQLQESGPSLVKPSQTLSLTCTVSGFSLSSVAVNWVRQAPGKVPEWLGGIISNGGTGYNPALKSRLSITRDTSKSQVSLALTHVTTEDTAVYYCGRGVEWEGSMDYLGPGLLVTVSSEGKSSGSGSETKVDDQSVLTQPSSVSGFLGQRVTITCSGSSSNVGAGSYVGWYQQVPGSGLRILIYGATKRASGLPDRFSGSRSGNTATLTISSLQAEDEADYYCVSYQTDFTLVFGSGTRLTVLG | hT40, 297-390 (dGA) | 360-390 | – | 360-390 | increase in immunoreactivity | – | – | – | – | – | – | – | – | –
3 | CA9: anti-tau clone, Tables 2 and 10; SEQ ID NO: 371 (protein, CA9 amino acid sequence) scFv: QVQLQESGPSLVKPSQTLSLTCTVSGFSLTSNSVGWVRQAPGKAPEWVAGIDTDGEEGYNPALNSRLSITRDTSKSQVSLSLSSVTSEDTAVYYCGRSYRSDGLAYGYVQAIDYWGPGLLVTVSSEGKSSGASGESKVDDQAVLTQPASVSGSLGQRVSITCSGSFIGISSVGWFQQLPGSGLRTIIVASDGRPSGVPDRFSMSKSGNTATLTISSLQAEDEADYFCGSSDRTQYTGVFGSGTRLTVLG | hT40, 239-441, 348-441, 297-390 (dGA) | 367-379 | – | – | increase in immunoreactivity | – | – | – | – | 370 (K), and/or 374 (H) | – | – | – | –
4 | CA4: anti-tau core clone, Table 10; SEQ ID NO: 368 (protein, CA4 amino acid sequence) scFv: QVQLQESGPSLVKPSQTLSLTCTVSGFSLTSYSVYWVRQAPGQALEWISIMYASGRVDYNPALKSRLSITRDTSKSQFSLSLSSVTTEDTAVYYCTRGIENWGPGLLVTVSSEGKSSGASGESKVDDDIQVTQSPSSLSASLTERVSITCRTSQSVNNYLSWYQQKPGQAPKLLIYYATRLYTDVPSRFSGSGSGTDYTLTITSLEADDTATYYCLQYDSTPLAFGGGTNVEIK | hT40, 239-441, 297-390 (dGA) | 355-367 | 355-367 | 355-367 | increase in immunoreactivity | 1.02e+06 M⁻¹ s⁻¹ | 0.001276 s⁻¹ | 458100 M⁻¹ s⁻¹ | 0.001654 s⁻¹ | 358 (D), 360 (I), 361 (T), 362 (H) and/or 364 (P) | CA4 (355-367) | 355-367 | 3 nM | –
5 | S1G2 mAb: S1G2 reformatted; heavy chain SEQ ID NO: 457, light chain 458 (antibody, S1G2 mAB Heavy Chain; S1G2 mAB Light Chain) heavy: QVQLQESGPSLVKPSQTLSLTCTVSGFSLTSNSVGWVRQAPGKAPEWVAGIDTDGEEGYNPALNSRLSITRDTSKSQVSLSLSSVTSEDTAVYYCGRSYRADGLAYGYVQAIDYWGPGLLVTVSSAKTTAPSVYPLAPVCGDTTGSSVTLGCLVKGYFPEPVTLTWNSGSLSSGVHTFPAVLQSDLYTLSSSVTVTSSTWPSQSITCNVAHPASSTKVDKKIEPRGPTIKPCPPCKCPAPNLLGGPSVFIFPPKIKDVLMISLSPIVTCVVVDVSEDDPDVQISWFVNNVEVHTAQTQTHREDYNSTLRVVSALPIQHQDWMSGKEFKCKVNNKDLPAPIERTISKPKGSVRAPQVYVLPPPEEEMTKKQVTLTCMVTDFMPEDIYVEWTNNGKTELNYKNTEPVLDSDGSYFMYSKLRVEKKNWVERNSYSCSVVHEGLHNHHTTKSFSRTPGK light: QAVVTQPSSVSGSLGQRVSITCSGSFIGISSVGWFQQLPGSGLRTIIVASDGRPSGVPDRFSMSKSGNTATLTISSLQAEDEADYFCGSSDRTPYTGVFGSGTRLTVLGGQPKSSPSVTLFPPSSEELETNKATLVCTITDFYPGVVTVDWKVDGTPVTQGMETTQPSKQSNNKYMASSYLTLTARAWERHSSYSCQVTHEGHTVEKSLSRADCS | – | – | – | – | – | – | – | – | – | – | – | – | – | ~1 ng/mL
